From patent CN102827282A (LIN HONG, dated 2012)

Molecular target: T1, 重组人Trop-2蛋白 (human, UniProt P09758 27-274, limits assumed)
T1 construct: Purified recombinant protein coated on ELISA plates; also called recombinant human Trop-2 protein; 重组的Trop-2蛋白
T1 sequence (looked up): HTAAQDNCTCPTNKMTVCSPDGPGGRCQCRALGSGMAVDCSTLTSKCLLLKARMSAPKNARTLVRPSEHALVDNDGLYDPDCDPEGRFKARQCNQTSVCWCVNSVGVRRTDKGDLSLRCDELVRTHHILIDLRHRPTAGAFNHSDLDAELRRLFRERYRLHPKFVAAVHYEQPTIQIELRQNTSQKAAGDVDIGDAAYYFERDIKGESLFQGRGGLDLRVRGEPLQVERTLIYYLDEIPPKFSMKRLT
Experiment: phage ELISA of single clones after five rounds of panning on recombinant human Trop-2

B1: 抗Trop-2的特异性人源Fab抗体 (Fab, V domains shown)
VH: QVQLVESGGGVVQPGRSLRLSCAASGFTFSSYGMHWVRQAPGKGLEWVAVIWYDGSNKYYADSVKGRFTISRDNSKNTLYLQMNSLRAEDTAVYYCARDPGWGFDYWGQGTLVTVSS
VL: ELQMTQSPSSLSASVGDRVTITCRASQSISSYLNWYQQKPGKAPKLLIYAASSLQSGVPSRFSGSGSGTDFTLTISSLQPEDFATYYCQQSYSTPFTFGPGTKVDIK
notes: also called 抗Trop-2抗体Fab; pComb3x-Fab
  binding result: binds
